Fewer inactive variants are shown than the library holds.
B1: TPR 5TU (parent)
chain: GGAUCUUCUCGAUCUAACAAAAAAGACAAAUCUGCCACAAAGCUUGAGAGCAUCUUCGGAUGCAGAGGCGGCAGCCUUCGGUGGCGCGAUAGCGCCAACGUUCUCAACUAUGACACGCAAAACGCGUGCUCCGUUGAAUGGAGUUUAUCAUG

Variants of: B1
Assay: polymerase ribozyme fitness, log enrichment relative to wild type (log ratio); higher = more active; in vitro selection for triplet polymerase activity
How it was run: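 One round of in vitro selection, in triplicate, was applied to PCR-built, transcribed mutant libraries of each subunit of a heterodimeric triplet polymerase ribozyme. The steps were annealing with a biotinylated primer, partner subunit and triplets, incubation frozen at −7 °C, gel excision of extended constructs, streptavidin-bead capture and RT-PCR. Fitness is the logarithm, base 2, of genotype enrichment over wild-type enrichment from inverse-variance-weighted replicate averages of Illumina-sequenced inputs and outputs, keeping genotypes with ≥10 input reads and ≥1 read per output.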

Point of comparison: GGAUCUUCUCGAUCUAACAAAAAAGACAAAUCUGCCACAAAGGUUGAGAGCAUCUUCGGAUGCAGAGGCGGCAGCCUUCGGUGGCGCGAUAGCACCAACGUUCUCAACUAUGACACGCAAAACGCGUGCUCCUUUGUAUGGAGUUUAUCAUG [C43G G94A G133U A137U], “polymerase ribozyme fitness (log ratio)” value -4.11. Against it:
- GGAUCUUCUCGAUCUAACAAAAAAGACAAAUCUGCCACAAAGGUUGAGAUCAUCUUCGGACGCAGAGGCGGCAGCCUUCGGUGGCACGAUAGCGUCAACGUUCUCAACUAUGACACGCAAAACGUGUGCUCCGUUGAAUGGAGUUGAUCAUG [C43G G50U U61C G86A C95U C125U U146G] — lower, ≤ -4.2
- GGAUCUUCUCGAUCUAACAAAAAAGACAAAUCUGCCACAAAGGUUGAGAGCAUCUGCGGAUGCAGAGGCGGCAGCCUUCGGUGGCGCGAUAGCGCUAACGUUCUCAACUAUGACACGCAAAACGCGUGCUCCGUUGAAGGGAGUUUAGCAUG [C43G U56G C96U U139G U148G] — lower, ≤ -4.2
- GGAUCUUCUCGAUCUAACAAAAAAGACAAAUCUGCCACAAAGGUUGAGAGCAUCUUAGCAUGCAGAGGCGGAAGCCUUAGGUGGCGCGAUAGCGCCAACGUUCUCAACUAUGACACGCAAAACGCGUGCUCCGUUGAGUGGAGUAUAUCAUG [C43G C57A G59C C72A C79A A138G U145A] — lower, ≤ -4.2
- GGAUCUUCUCGAUCUAACAAAAAAGACAAAUCUGCCACAAAGAUUGAGAGCAACAUCGGAUGCAGAGGCGGCAACAUUCGGUGGCGCUAUAGCGCCAACGUUCUCAACUAUGACACGCAAAACGCGUGCUCCGUUGAAUGGGGUUUAUCAUG [C43A U53A U55A G74A C76A G88U A142G] — lower, ≤ -4.2
- GGAUCUUCUCGAUCUAACAAAAAAGACAAAUCUGCCACAAAGGUUGAGAGCAUCUUCGGAUGCAGAGGCGGCAGCCUUCGGUGGCGCGAUAGCACCAACGUUCUCAACUAUGACACGCAAAACGCGUGCUCCGUUGAAUGGAGUUUAUCAUG [C43G G94A] — higher, -3.81
- GGAUCUUCUCGAUCUAACAAAAAAGACAAAUCUGCCACAAAGAUUGAGAGCAUCUUCGGAUGCAGAGGCGGCAGUCUUCGGUGGCGCGAUAGCGCCAACGUUCUCUAUUAUGACACGCAAAAGGCGUGCUCCGUUGAAUGAAGUUUAUCAUG [C43A C75U A106U C108U C123G G141A] — lower, ≤ -4.2
- GGAUCUUCUCGAUCUAACAAAAAAGACAAAUCUGCCACAAAGGUUGAGACCAUCUUCGGAUGCAGAGGCGGCAGCCUUCGGUGGAGCGAUAGCGCAAACGUUCUCAAUUAUGACACGCAAAACACGUGCUCCGUUGAAUGGAGUUUAUCAUG [C43G G50C C85A C96A C108U G124A] — lower, ≤ -4.2
- GGAUCUUCUCGAUCUAACAAAAAAGACAAAUCUGCCACAAAGGUUGAGAGCAUCUUCGGAUGCAGAGGCGGCAGCCUUCGGUUGCGCGAUAGCGCCUACGUUCCCAACUAUGACAUGCAAAACGCGUGCUCCGUUGCAUGGAGUUUAUCAUG [C43G G83U A97U U104C C116U A137C] — lower, ≤ -4.2
- GGAUCUUCUCGAUCUAACAAAAAAGACAAAUCUGCCACAAAGGUUGAGAGCAUCUUCGGAUGCAGAGGCGGCAGCCUUCGGUGGCGCGAUAGCGCCAACGUUCUAAACUAUGACACGCAAAAGGCGUGCUCCGUUGAAUGGAGUUUAACAUG [C43G C105A C123G U148A] — lower, ≤ -4.2
- GGAUCUUCUCGAUCUAACAAAAAAGACAAAUCUGCCACAAAGGUUGAGAGCAUCUUCGGAUGCAGAGGCGGCAGCCUUCGGUGGCGUGAUAGCGCCAACGUUCUCAACGAUGACACGCAAAACGCGUGCUCCGUUGAAUGGAGUUUAUCAUG [C43G C87U U109G] — lower, ≤ -4.2
- GGAUCUUCUCGAUCUAACAAAAAAGACAAAUCUGCCACAAAGAUUGAGAGCAUCUUUGGAUGCAGAGGCGGCAGCGUUCGGUGGAACGAUAGCGCCAACGUUCUCAACUAUGACACGCAAAACGCGUGCUCCGUUGAAUAGAGUUUAUCAUG [C43A C57U C76G C85A G86A G140A] — lower, ≤ -4.2
- GGAUCUUCUCGAUCUAACAAAAAAGACAAAUCUGCCACAAAGGUUGAGACCAUCUUCGGAUACAGAGGCGGCAGCCUUCGGUGACGCGAUACCGCCAACGUUCUCAACUAUGACACGCAAAACGCGUGCUCCGUUGAAUGGAGUUUAUCAUG [C43G G50C G62A G84A G92C] — lower, ≤ -4.2
- GGAUCUUCUCGAUCUAACAAAAAAGACAAAUCUGCCACAAAGAUUGAGAGCAGCUUCGGAUGCUGAGGCGGCAGCCUUCGGUGGCGCGAUAGCGUCAACGUUCUCAACUUUGACACGCAAAACGCGUGCUCCGUUGAAUGGAGUUUAUCCUG [C43A U53G A64U C95U A110U A150C] — lower, ≤ -4.2
- GGAUCUUCUCGAUCUAACAAAAAAGACAAAUCUGCCACAAAGAUUGAGAGCAUCUUCGGAUGCAGAGGCGGCAGCCUUCGGUGGCGCAAUAGCGCCAACGUUCUCAACUAUGACACGCAAAACGCGUGCUCCGUUGAAUGGAGUUUAUCAUG [C43A G88A] — lower, ≤ -4.2
- GGAUCUUCUCGAUCUAACAAAAAAGACAAAUCUGCCACAAAGAUUGAGAGCAUCUUCGGAUGCAGAGGCGGCGGCCUUCGGUAGCGCGUCAGCGCCAACGUUCUCAACUAUGACACGCAAAACGCGUGCUCCGUUCAAUGCAGUUUAUCAUG [C43A A73G G83A A89U U90C G136C G141C] — lower, ≤ -4.2
- GGAUCUUCUCGAUCUAACAAAAAAGACAAAUCUGCCACAAAGAUUGAGAGCAUCUUCGGAUGCAGAGGCGGCAGCCUUCGGUGGCGCGAUAGCGCAAACGGUCUCAACUAUGACACGCAAAACGCGUGCUCCGUUGAAUGGAGUUUAUCUUG [C43A C96A U101G A150U] — within 0.2 log units, -4.16
- GGAUCUUCUCGAUCUAACAAAAAAGACAAAUCUGCCACAAAGGUUGAGAGCAUAAUCGGAUGCAGAGGCGGCGCCCUUCGGUGGCGCGAUAGCGCCAACGUUCUCAACUAUGACACGCAAAACCCGUGCUCCGUUGAAUGGAGUUUAUCAUG [C43G C54A U55A A73G G74C G124C] — lower, ≤ -4.2
- GGAUCUUCUCGAUCUAACAAAAAAGACAAAUCUGCCACAAAGAUUGAGAGCAUCUUCGGAUGCAGGGGCGGCAGCCAUCGGUGGCGCGAUAGCGCCGACGUUCUCAACUAUGACACGCAAAACGCGUGCUCCGUUGAAUGGAGUUAAUCAUG [C43A A66G U77A A97G U146A] — lower, ≤ -4.2

Source: the RNAGym collection of RNA variant scans (doi:10.1073/pnas.2313332121)
